This experiment deals with gp120 prebound to sCD4 (HIV-1, subtype B, strain YU2 | human) (UniProt P35961). Nature of the experiment: ITC.

pKd: −log10 of the molar value.

In general, pKd refers to the Kd on a negative log10 scale, so that one unit is a factor of ten. Read a low pKd as a high Kd. “S22 peptide, 22 amino acid tyrosine-sulfated peptide corresponding to the CCR5 N-terminus (from UniProt P51681 1-22)” had a pKd of 5.66.

Source of the values: publication PMC2700308.
